{"source": "patent US20050123549A1", "about": "(IMMUNOGEN, published 2005)", "binders": {"B1": {"name": "humanized DS6 antibody version 1.0 (antibody, human IgG1, V domains shown)", "VH": "QAQLQVSGAEVVKPGASVKMSCKASGYTFTSYNMHWVKQTPGQGLEWIGYIYPGNGATNYNQKFQGKATLTADTSSSTAYMQISSLTSEDSAVYFCARGDSVPFAYWGQGTLVTVSA", "VL": "EIVLTQSPATMSASPGERVTITCSAHSSVSFMHWFQQKPGTSPKLWIYSTSSLASGVPARFGGSGSGTSYSLTISSMEAEDAATYYCQQRSSFPLTFGAGTKLELKR", "notes": "also called huDS6 v1.0; v1.0"}, "B2": {"name": "DS6 antibody-DM1 conjugate (antibody, V domains shown)", "VH": "QAYLQQSGAELVRSGASVKMSCKASGYTFTSYNMHWVKQTPGQGLEWIGYIYPGNGATNYNQKFKGKATLTADPSSSTAYMQISSLTSEDSAVYFCARGDSVPFAYWGQGTLVTVSA", "VL": "QIVLTQSPAIMSASPGEKVTITCSAHSSVSFMHWFQQKPGTSPKLWIYSTSSLASGVPARFGGSGSGTSYSLTISRMEAEDAATYYCQQRSSFPLTFGAGTKLELKR", "modifications": "DM1 linked through the SPP disulfide linker, DM1/Ab ratio 4.36; positions not given", "notes": "also called DS6-DM1; immunoconjugate"}, "B3": {"name": "DS6-SPP-MM1-202 taxoid conjugate (antibody, V domains shown)", "VH": "QAYLQQSGAELVRSGASVKMSCKASGYTFTSYNMHWVKQTPGQGLEWIGYIYPGNGATNYNQKFKGKATLTADPSSSTAYMQISSLTSEDSAVYFCARGDSVPFAYWGQGTLVTVSA", "VL": "QIVLTQSPAIMSASPGEKVTITCSAHSSVSFMHWFQQKPGTSPKLWIYSTSSLASGVPARFGGSGSGTSYSLTISRMEAEDAATYYCQQRSSFPLTFGAGTKLELKR", "modifications": "taxoid MM1-202 linked through the SSNPP linker, 2.86 drugs/antibody; positions not given", "notes": "also called taxane-conjugated DS6 antibody"}, "B4": {"name": "biotinylated murine DS6 (antibody, V domains shown)", "VH": "QAYLQQSGAELVRSGASVKMSCKASGYTFTSYNMHWVKQTPGQGLEWIGYIYPGNGATNYNQKFKGKATLTADPSSSTAYMQISSLTSEDSAVYFCARGDSVPFAYWGQGTLVTVSA", "VL": "QIVLTQSPAIMSASPGEKVTITCSAHSSVSFMHWFQQKPGTSPKLWIYSTSSLASGVPARFGGSGSGTSYSLTISRMEAEDAATYYCQQRSSFPLTFGAGTKLELKR", "modifications": "biotinylated; positions not given", "notes": "Murine DS6 IgG with biotin; also called biotin-muDS6; biotin-DS6"}, "B5": {"name": "chimeric DS6 (antibody, V domains shown)", "VH": "QAYLQQSGAELVRSGASVKMSCKASGYTFTSYNMHWVKQTPGQGLEWIGYIYPGNGATNYNQKFKGKATLTADPSSSTAYMQISSLTSEDSAVYFCARGDSVPFAYWGQGTLVTVSA", "VL": "QIVLTQSPAIMSASPGEKVTITCSAHSSVSFMHWFQQKPGTSPKLWIYSTSSLASGVPARFGGSGSGTSYSLTISRMEAEDAATYYCQQRSSFPLTFGAGTKLELKR"}, "B6": {"name": "humanized DS6 antibody version 1.2 (antibody, human IgG1, V domains shown)", "VH": "QAQLQVSGAEVVKPGASVKMSCKASGYTFTSYNMHWVKQTPGQGLEWIGYIYPGNGATNYNQKFQGKATLTADPSSSTAYMQISSLTSEDSAVYFCARGDSVPFAYWGQGTLVTVSA", "VL": "EIVLTQSPATMSASPGERVTITCSAHSSVSFMHWFQQKPGTSPKLWIYSTSSLASGVPARFGGSGSGTSYSLTISSMEAEDAATYYCQQRSSFPLTFGAGTKLELKR", "notes": "The light chain is the same as in v1.0; also called huDS6 v1.2; v1.2"}}, "key": {"[1]": {"molecular_target": "T1, Muc1 mucin carrying the CA6 sialoglycotope (human, UniProt P15941 24-1255, sialylated O-linked carbohydrate carrying the CA6 epitope; positions not stated)", "T1 construct": "whole, on cells; Target of DS6 on CA6-positive human cell lines (flow cytometry) and in their lysates (dot blots, immunoprecipitation); also called CA6 antigen; DS6 antigen", "assay": "flow cytometry on WISH cells, direct binding"}, "[2]": {"molecular_target": "T1, Muc1 mucin carrying the CA6 …", "assay": "competition flow cytometry on WISH cells; competitor 2 nM biotin-muDS6, streptavidin-DTAF", "experimental": "(§1) To confirm that the huDS6 versions retains the affinity of muDS6, competitive binding experiments were conducted. […] In some cases, the experimentally measured apparent Kd can vary simply because of the secondary reagent used to indirectly detect binding."}, "[3]": {"molecular_target": "T1, Muc1 mucin carrying the CA6 …", "assay": "cell-based or functional assay"}, "[4]": {"molecular_target": "T1, Muc1 mucin carrying the CA6 …", "assay": "flow cytometry on Caov-3 cells"}, "[5]": {"molecular_target": "T1, Muc1 mucin carrying the CA6 …", "assay": "flow cytometry on HeLa cells"}, "[6]": {"molecular_target": "T1, Muc1 mucin carrying the CA6 …", "assay": "flow cytometry on WISH cells, detected with streptavidin-DTAF", "experimental": "as §1"}, "[7]": {"molecular_target": "T1, Muc1 mucin carrying the CA6 …", "assay": "flow cytometry on WISH cells, detected with goat anti-mouse-FITC"}}, "data": [{"binder": "B1", "values": [{"measurement": "Kd", "setting": "[1]", "result": 3.71, "unit": "nM"}, {"measurement": "EC50", "setting": "[2]", "result": 37.1, "unit": "nM"}]}, {"binder": "B2", "values": [{"measurement": "Clonogenic Assay Conjugate IC50 (M), BT-20 cells", "setting": "[3]", "result": "> 3e-09", "unit": "M"}, {"measurement": "Clonogenic Assay Conjugate IC50 (M), BT-483 cells", "setting": "[3]", "result": "1e-10", "unit": "M"}, {"measurement": "Clonogenic Assay Conjugate IC50 (M), Caov-3 cells", "setting": "[3]", "result": "8e-10", "unit": "M"}, {"measurement": "Clonogenic Assay Conjugate IC50 (M), Caov-4 cells", "setting": "[3]", "result": "> 3e-09", "unit": "M"}, {"measurement": "Clonogenic Assay Conjugate IC50 (M), HPAC cells", "setting": "[3]", "result": "1.8e-09", "unit": "M"}, {"measurement": "Clonogenic Assay Conjugate IC50 (M), HPAF-II cells", "setting": "[3]", "result": "> 3e-09", "unit": "M"}, {"measurement": "Clonogenic Assay Conjugate IC50 (M), HeLa cells", "setting": "[3]", "result": "1.8e-09", "unit": "M"}, {"measurement": "Clonogenic Assay Conjugate IC50 (M), Hs766T cells", "setting": "[3]", "result": "> 3e-09", "unit": "M"}, {"measurement": "Clonogenic Assay Conjugate IC50 (M), KB cells", "setting": "[3]", "result": "1.4e-09", "unit": "M"}, {"measurement": "Clonogenic Assay Conjugate IC50 (M), OVCAR5 cells", "setting": "[3]", "result": "> 3e-09", "unit": "M"}, {"measurement": "Clonogenic Assay Conjugate IC50 (M), T-47D cells", "setting": "[3]", "result": "> 3e-09", "unit": "M"}, {"measurement": "Clonogenic Assay Conjugate IC50 (M), TOV-21G cells", "setting": "[3]", "result": "2e-09", "unit": "M"}, {"measurement": "Clonogenic Assay Conjugate IC50 (M), WISH cells", "setting": "[3]", "result": "4.6e-10", "unit": "M"}, {"measurement": "MTT Assay Conjugate EC50 (M), BT-20 cells", "setting": "[3]", "result": "1.44e-08", "unit": "M"}, {"measurement": "MTT Assay Conjugate EC50 (M), Caov-3 cells", "setting": "[3]", "result": "1.61e-09", "unit": "M"}, {"measurement": "MTT Assay Conjugate EC50 (M), HPAC cells", "setting": "[3]", "result": "1.84e-09", "unit": "M"}, {"measurement": "MTT Assay Conjugate EC50 (M), HPAF-II cells", "setting": "[3]", "result": "1e-08", "unit": "M"}, {"measurement": "MTT Assay Conjugate EC50 (M), Hs766T cells", "setting": "[3]", "result": "> 3.2e-08", "unit": "M"}, {"measurement": "MTT Assay Conjugate EC50 (M), KB cells", "setting": "[3]", "result": "3.01e-09", "unit": "M"}, {"measurement": "MTT Assay Conjugate EC50 (M), OVCAR5 cells", "setting": "[3]", "result": "8.46e-07", "unit": "M"}, {"measurement": "MTT Assay Conjugate EC50 (M), TOV-21G cells", "setting": "[3]", "result": "6.88e-09", "unit": "M"}, {"measurement": "MTT Assay Conjugate EC50 (M), WISH cells", "setting": "[3]", "result": "6.69e-10", "unit": "M"}, {"measurement": "MTT Assay Conjugate EC50 (M), ZR-75-1 cells", "setting": "[3]", "result": "9.45e-10", "unit": "M"}, {"measurement": "Kd", "setting": "[4]", "result": 3.9, "unit": "nM"}]}, {"binder": "B3", "values": [{"measurement": "Kd", "setting": "[5]", "result": 1.24, "unit": "nM"}]}, {"binder": "B4", "values": [{"measurement": "Kd", "setting": "[6]", "result": 6.76, "unit": "nM"}, {"measurement": "Kd", "setting": "[7]", "result": 2.8, "unit": "nM"}]}, {"binder": "B5", "values": [{"measurement": "Kd", "setting": "[1]", "result": 3.15, "unit": "nM"}]}, {"binder": "B6", "values": [{"measurement": "Kd", "setting": "[1]", "result": 4.2, "unit": "nM"}, {"measurement": "EC50", "setting": "[2]", "result": 22.6, "unit": "nM"}]}]}
